# Results: US7223834 (Bristol-Myers Squibb, dated 2007)
# Ends that are not written are not given here. * marks the point of attachment. Biotin = O=C1N[C@H]2[C@H](CS[C@H]2CCCCC(=O)*)N1
# Target: aggrecan degrading metallo protease (ADMP)
# Assay: cell-based or functional assay
binder,measurement,value
"QTVTWPDMELPLPRNITEGQARGSVILTVK(Biotin) (not fully specified (N-terminus, C-terminus); printed as QTVTWPDMELPLPRNITEGQARGSVILTVK-Biotin) [30-mer inhibitor peptide (30-IP), QTVTWPDMELPLPRNITEGQARGSVILTVK-Biotin]","IC50 for the inhibition of ADMP activity (microplate assay, cleavage of plate-bound 41-PS detected with BC-3 antibody)",11 µM
